Experimental data: article PMC6537384, “A GDF11/myostatin inhibitor, GDF11 propeptide-Fc, increases skeletal muscle mass and improves muscle strength in dystrophic mdx mice” (Skeletal Muscle, 2019)

What was measured:
recombinant MSTN = biological target: T1, recombinant MSTN (UniProt O14793 267-375); assay: cell-based or functional assay
T1 sequence (looked up): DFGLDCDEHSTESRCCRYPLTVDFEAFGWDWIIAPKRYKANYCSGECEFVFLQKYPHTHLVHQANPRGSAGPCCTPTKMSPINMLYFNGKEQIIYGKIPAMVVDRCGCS

recombinant GDF11 = biological target: T2, recombinant GDF11 (UniProt O95390 299-407); assay: cell-based or functional assay
T2 sequence (looked up): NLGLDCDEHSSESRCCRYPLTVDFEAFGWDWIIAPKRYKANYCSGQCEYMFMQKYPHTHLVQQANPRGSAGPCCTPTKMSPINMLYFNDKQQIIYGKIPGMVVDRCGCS

average myotube diameter relative to control, C2C12 myotubes expressing GDF11PRO-Fc (AAV6) treated with 100 ng/ml rMSTN (rMSTN alone: − 35%) (recombinant MSTN): -5.3%
differentiation index relative to untreated control, C2C12 myotubes expressing GDF11PRO-Fc (AAV6) treated with 100 ng/ml rMSTN (rMSTN alone: − 14%) (recombinant MSTN): -3%
average myotube diameter relative to control, C2C12 myotubes expressing GDF11PRO-Fc (AAV6) treated with 100 ng/ml rGDF11 (rGDF11 alone: − 39%) (recombinant GDF11): -1.8%
differentiation index relative to untreated control, C2C12 myotubes expressing GDF11PRO-Fc (AAV6) treated with 100 ng/ml rGDF11 (rGDF11 alone: − 15%) (recombinant GDF11): -1.9%
B1: GDF11 propeptide-Fc (Fc fusion, human, UniProt O95390 25-298, looked up)
chain: AEGPAAAAAAAAAAAAAGVGGERSSRPAPSVAPEPDGCPVCVWRQHSRELRLESIKSQILSKLRLKEAPNISREVVKQLLPKAPPLQQILDLHDFQGDALQPEDFLEEDEYHATTETVISMAQETDPAVQTDGSPLCCHFHFSPKVMFTKVLKAQLWVYLRPVPRPATVYLQILRLKPLTGEGTAGGGGGGRRHIRIRSLKIELHSRSGHWQSIDFKQVLHSWFRQPQSNWGIEINAFDPSGTDLAVTSLGPGAEGLHPFMELRVLENTKRSRR
